Tested on: Escherichia coli TOP10
Test: shrunken log2 fold change of peptide-encoding DNA abundance (4.5 h post-induction vs induction); higher = less antimicrobial activity (less host growth inhibition)
Settings: time post-induction: 4.5 h; library: site-saturation at positions 5, 18, 19, 20
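Also: peptides expressed intracellularly from a pBAD plasmid library in pooled LB shake-flask culture, induced with 0.3% L-arabinose, DNA abundance read by NGS, three biological replicates, DESeq2 with apeglm shrinkage.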

Row | Sequence | shrunken log2 fold change
1 | RRIRDRPPRLPRPRPRPKVVPRP | -0.01
2 | RRIRDRPPRLPRPRPRPKWQPRP | 0.276
3 | RRIRDRPPRLPRPRPRPKYFPRP | -0.0236
4 | RRIRDRPPRLPRPRPRPKYHPRP | -0.412
5 | RRIRDRPPRLPRPRPRPLCLPRP | 0.0562
6 | RRIRDRPPRLPRPRPRPLDYPRP | -0.242
7 | RRIRDRPPRLPRPRPRPLEVPRP | 0.121
8 | RRIRDRPPRLPRPRPRPLFPPRP | -0.116
9 | RRIRDRPPRLPRPRPRPLHEPRP | -0.129
10 | RRIRDRPPRLPRPRPRPLIMPRP | -0.0616
11 | RRIRDRPPRLPRPRPRPLIPPRP | -0.516
12 | RRIRDRPPRLPRPRPRPLISPRP | 0.116
13 | RRIRDRPPRLPRPRPRPLLMPRP | 0.359
14 | RRIRDRPPRLPRPRPRPLMHPRP | 0.164
15 | RRIRDRPPRLPRPRPRPLPDPRP | 0.701
16 | RRIRDRPPRLPRPRPRPLRSPRP | 0.294
17 | RRIRDRPPRLPRPRPRPLRVPRP | 0.679
18 | RRIRDRPPRLPRPRPRPLSYPRP | 0.194
19 | RRIRDRPPRLPRPRPRPLTTPRP | 0.135
20 | RRIRDRPPRLPRPRPRPLTWPRP | 0.24
21 | RRIRDRPPRLPRPRPRPLVCPRP | 0.22
22 | RRIRDRPPRLPRPRPRPLVRPRP | 0.223
23 | RRIRDRPPRLPRPRPRPLVSPRP | 0.469
24 | RRIRDRPPRLPRPRPRPLWGPRP | 0.294
25 | RRIRDRPPRLPRPRPRPLWLPRP | 0.399
26 | RRIRDRPPRLPRPRPRPLYCPRP | -0.333
27 | RRIRDRPPRLPRPRPRPLYFPRP | -0.601
28 | RRIRDRPPRLPRPRPRPLYMPRP | 0.383

Row | Sequence | shrunken log2 fold change
29 | RRIRDRPPRLPRPRPRPLYVPRP | -0.17
30 | RRIRDRPPRLPRPRPRPMFDPRP | 0.894
31 | RRIRDRPPRLPRPRPRPMFIPRP | -0.0363
32 | RRIRDRPPRLPRPRPRPMHKPRP | 0.0101
33 | RRIRDRPPRLPRPRPRPMIDPRP | 0.141
34 | RRIRDRPPRLPRPRPRPMIFPRP | 0.0749
35 | RRIRDRPPRLPRPRPRPMIGPRP | 0.266
36 | RRIRDRPPRLPRPRPRPMIIPRP | 0.248
37 | RRIRDRPPRLPRPRPRPMKCPRP | -0.00962
38 | RRIRDRPPRLPRPRPRPMKWPRP | 0.139
39 | RRIRDRPPRLPRPRPRPMMGPRP | 0.0397
40 | RRIRDRPPRLPRPRPRPMNNPRP | -0.424
41 | RRIRDRPPRLPRPRPRPMNSPRP | -0.0173
42 | RRIRDRPPRLPRPRPRPMPDPRP | -0.00281
43 | RRIRDRPPRLPRPRPRPMPFPRP | 0.00571
44 | RRIRDRPPRLPRPRPRPMQKPRP | 0.0229
45 | RRIRDRPPRLPRPRPRPMTRPRP | -0.113
46 | RRIRDRPPRLPRPRPRPMVNPRP | -0.0813
47 | RRIRDRPPRLPRPRPRPMWDPRP | 0.00712
48 | RRIRDRPPRLPRPRPRPMWPPRP | 0.316
49 | RRIRDRPPRLPRPRPRPNADPRP | 0.018
50 | RRIRDRPPRLPRPRPRPNAWPRP | -0.0496
51 | RRIRDRPPRLPRPRPRPNDEPRP | 0.418
52 | RRIRDRPPRLPRPRPRPNETPRP | -0.023
53 | RRIRDRPPRLPRPRPRPNFLPRP | -0.277
54 | RRIRDRPPRLPRPRPRPNGWPRP | 0.612
55 | RRIRDRPPRLPRPRPRPNKEPRP | 0.0313

Source: the supplement of paper PMC9112550, “Optimization of the antimicrobial peptide Bac7 by deep mutational scanning” (BMC Biology, 2022)
